The source of these data is paper PMC11347163, “Structural analysis of the BisI family of modification dependent restriction endonucleases”.

Data set [1] deals with NhoI (Nitrolancea hollandica). Put plainly: crystal structure; sitting drop vapor diffusion at 18°C; proteins crystallised without DNA and as specific complexes with tetra-methylated GCNGC dsDNA, with Ca2+.
In data set [2] the target is Eco15I_Ntd (N-terminal catalytic domain of Eco15I) (Escherichia coli strain 541-15). The data set is described as above.
Data set [3] addresses T1, Eco15I_Ntd (N-terminal catalytic domain of Eco15I) (UniProt A0A0L6ZWS4).
T1 sequence: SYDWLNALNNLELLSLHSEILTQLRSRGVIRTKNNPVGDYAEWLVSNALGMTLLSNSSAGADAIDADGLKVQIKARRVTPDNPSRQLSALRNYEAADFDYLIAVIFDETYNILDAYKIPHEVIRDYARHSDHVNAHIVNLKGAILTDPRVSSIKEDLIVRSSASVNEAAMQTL
As to the kind of experiment: crystal structure; Ca2+ in active site; SPR: 20 mM HEPES pH 7.8, 50 or 150 mM KCl, 1 mM CaCl2, 1 mM DTT, 0.05% Tween-20, 25 C; EMSA: 20 mM HEPES pH 7.8, 50 mM KCl, 1 mM DTT, 1 mM CaCl2, on ice 30 min, unlabeled unmodified oligo or salmon sperm DNA competitor. The following applies: protein: recombinant; tags: 6xHis-SUMO removed by Ulp1; chain copies: 2; blunt. In general terms: In EMSA bound probe runs differently from free probe, usually more slowly.

Data set [4] concerns the target T1, Eco15I_Ntd (N-terminal catalytic domain …). As to the kind of experiment: SPR; 1 mM Ca2+; 50 mM KCl; SPR: 20 mM HEPES pH 7.8, 50 or 150 mM KCl, 1 mM CaCl2, 1 mM DTT, 0.05% Tween-20, 25 C; EMSA: 20 mM HEPES pH 7.8, 50 mM KCl, 1 mM DTT, 1 mM CaCl2, on ice 30 min, unlabeled unmodified oligo or salmon sperm DNA competitor. The following applies: protein: recombinant; tags: 6xHis-SUMO removed by Ulp1; chain copies: 2; label: 5' biotin. (In SPR one partner is held on a chip, and binding of the other changes the refractive index at the surface.)

The target in data set [5] is T2, Eco15I_Ctd (C-terminal domain of Eco15I) (UniProt A0A0L6ZWS4).
T2 sequence: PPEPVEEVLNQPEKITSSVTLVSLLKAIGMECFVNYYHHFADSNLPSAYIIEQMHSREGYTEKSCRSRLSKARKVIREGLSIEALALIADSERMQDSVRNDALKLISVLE
The data set is described as above. The settings on record: protein: recombinant; label: 5' biotin.

A further data set has as its target T3, NhoI (UniProt I4EG67).
T3 sequence: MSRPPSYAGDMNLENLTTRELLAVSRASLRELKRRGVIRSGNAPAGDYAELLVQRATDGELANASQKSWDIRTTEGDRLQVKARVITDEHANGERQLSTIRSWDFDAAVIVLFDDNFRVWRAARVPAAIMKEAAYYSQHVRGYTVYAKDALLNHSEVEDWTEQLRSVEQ
As to the kind of experiment: crystal structure; Ca2+ in active site; SPR: 20 mM HEPES pH 7.8, 50 or 150 mM KCl, 1 mM CaCl2, 1 mM DTT, 0.05% Tween-20, 25 C; EMSA: 20 mM HEPES pH 7.8, 50 mM KCl, 1 mM DTT, 1 mM CaCl2, on ice 30 min, unlabeled unmodified oligo or salmon sperm DNA competitor. The settings on record: protein: recombinant; tags: 6xHis-SUMO removed by Ulp1; chain copies: 2; blunt.

NhoI (enzyme) registered a stoichiometry N in data set [1] of 2. “Eco15I_Ntd (N-terminal catalytic domain of Eco15I) (domain or fragment)” displayed a stoichiometry N in data set [2] of 2.

B1: Eco15I_Ntd co-crystal duplex, tetramethylated GCAGC (dsDNA)
DNA 1: AAGCAGCAA
DNA 2: TTGCTGCTT
modifications: 5mC at positions 4 and 7 of strand 1; 5mC at positions 4 and 7 of strand 2
Take B1: the binding result in data set [3] is on record as “binds”.

B2: SPR duplex, four 5mC in GCNGC (dsDNA)
DNA 1: CGGTTGAGCAGCACCTCAGA
DNA 2: TCTGAGGTGCTGCTCAACCG
modifications: 5mC at both internal and both external cytosines
In the case of B2, the binding result was “binds” in data set [4] and “no binding” in data set [5].

B3: NhoI co-crystal duplex, tetramethylated GCAGC (dsDNA)
DNA 1: CTGCAGCTC
DNA 2: GAGCTGCAG
modifications: 5mC at positions 4 and 7 of strand 1; 5mC at positions 4 and 7 of strand 2
As to B3, the binding result with NhoI is reported as “binds”.

Broadly, the stoichiometry N is a count of units in the complex or per binding partner.
